# Test system: MS2 coat protein
# Experiment: apparent KD of MS2 coat protein; designed switch direction (-1 OFF switch, 1 ON switch): -1; higher = weaker reporter binding
# Procedure, shortened: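 The apparent KD reported per design is the median over clusters of curve fits to normalised cluster fluorescence. The RNA switches were transcribed on Illumina chips by stalled E. coli RNA polymerase. SNAP-549-labelled MS2 coat protein was titrated from 0.7 or 1.5 nM, doubling up to 3 µM, in Tris-HCl pH 7.5 buffer containing KCl, MgCl2, BSA, DTT, tRNA and Tween-20, with no input, 200 uM small-molecule ligand, or an oligonucleotide input.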
# [1] = Eterna round: R95, input ligand: FMN 200 uM
# [2] = Eterna round: R95, input ligand: microRNA oligo, concentration not stated
# [3] = Eterna round: R95, input ligand: none
# [4] = input ligand: microRNA oligo, concentration not stated
Sequence,apparent KD of MS2 coat protein (input ligand: FMN 200 uM) [nM],apparent KD of MS2 coat protein (input ligand: none) [nM],apparent KD of MS2 coat protein [1] [nM],apparent KD of MS2 coat protein [2] [nM],apparent KD of MS2 coat protein [3] [nM],apparent KD of MS2 coat protein [4] [nM]
"GUGACACAUGAGGAUCACCCAUGUGAGGAUAUAUCCGACUAUGAAAGGGUGUAGCAGGAUAGAAGGUACUGGCG [Eternabot (L2) Solution 54] (Eterna round: R97, puzzle: Exclusion 1)",83.1,104,,,,
"UGUCAGUCAGGAUAUGCAUACGUAGACAUGAGGAUCACCCAUGUGACGUGGGACUGGUGUGUAGAAGGGACGAACA [EX5 #79] (Eterna round: R97, puzzle: Exclusion 5)",29.8,28.6,,,,
"AAUAACAAGCUGAUCCUCCACAUGAGGAUCACCCAUGUGUUCGUCUUGUAAAGUACUAUCACGAAAGUGAUAGUACA (Eterna round: R97, puzzle: Sensor, turn-off variant 1)",984,1630,,,,
GCAGUGCGAGGAUAUACAUGAGGAUCACCCAUGUGAGAGAAAUAAGUGAGGAAGAAAAGUAGAAGGCGCGUUGG [Mat - Exclusion 3 - Mod of Salish D69] (puzzle: Exclusion 3),,,95.2,40.8,69.1,
"AUCCAGGCAGGAUAUUGCCGGUUGCACAUGAGGAUCACCCAUGUACUCCUAGGUCGAUGGCAAGAAGGGCUAUCCA [Eternabot (Original) Solution 24] (Eterna round: R97, puzzle: Exclusion 5)",26.6,36,,,,
"GGCCCUAAGGUCAGAUUCACAAGCUUUUUGCUCGUUUUAACAUGAGGAUCACCCAUGUCUAGUGGAUUUGAUCCUUA [Sensor v3, turn-off variant 2 (MOD of Indiso v.7)] (puzzle: Sensor v3, turn-off variant 2)",,,21.8,20,18.9,
"GCAACGCUGAAAGGAUAUGUUGACCGAGAGACAACAGAAGGUUCCGCACAUGAGGAUCACCCAUGUGAUCGUAAAAGAGCAAGC [Eternabot solution 18] (Eterna round: R96, puzzle: Exclusion NG 1)",99.5,48.1,,,,35.9
"UGUCAGAUGGUAGGAUAUCCAUAUCGAGUGACCCUUUCUUAACAUGAGGAUCACCCAUGUCGGUGGGAGAAGGGCCGUAUGGUG [salish99_ExNG02_R04_032] (Eterna round: R96, puzzle: Exclusion NG 2)",31.4,29.9,,,,24
"AAUGUCCAACGAGGAUAUGGGAAAGGAAGUGUACCAGAAGGCGUACGGACAUGAGGAUCACCCAUGUCGCGCGGCGCGAUGUGG [PowerStrip EXNG 1.14] (Eterna round: R96, puzzle: Exclusion NG 1)",80.9,52.7,,,,46.4
"UUAUGAGUAGGAUAUGAGCCAAAAUACAUGAGGAUCACCCAUGUCGGGUUCAUGGAGGGCUCAGAAGGAUUCAAUA [Exclusion 5 - Laarte Mod] (Eterna round: R97, puzzle: Exclusion 5)",105,17,,,,
GAUUGACAUGAGGAUCACCCAUGUGAGGAUAUCGGCUGGUACGUGUUGGCUUGCCUCUCGAGAAGGCGCAUAGG [Exclusion 1 V55] (puzzle: Exclusion 1),,,140,38.5,63.1,
"AGUAACCGUCACGAAAGUGAUGGUUACACAAGUGUAAUAACAUGAGGAUCACCCAUGUCCUCAUUUGCUCGUUUUAU [Sensor 3 - 37] (puzzle: Sensor v3, turn-off variant 2)",,,45.1,144,140,
"GUGAAGAAGUUAGUGGCCUACAUGAGGAUCACCCAUGUGAGGGAAAUGUUGAGGCGAAAGUUGUGUGCUCGUCUGUA [JR_SV3TOV1_Sub040] (puzzle: Sensor v3, turn-off variant 1)",,,27.1,52.1,31.1,
UCAUGUAUGUAGGAUAUCGAUGUCCUUGGACAUCGAGAAGGACGUACAUGAGGAUCACCCAUGUAACUUGCAUG [Exclusion 6 - B - 11:d] (puzzle: Exclusion 6),,,,18.7,,
GUCUCGUGAGGAUAUGACGCUACUUUUUUGUUUUAGUAGAGUCAGAAGGCACAUGAGGAUCACCCAUGUGAUUC [Ex4 - 3 - 4] (puzzle: Exclusion 4),,,,56,,
"UUAAAGGCAGGAUAUACAUUUUUUUUAUUAUCCUCAUUAUUACAUGAGGAUCACCCAUGUAGAAGGGCCAAAUU [Mat - Exclusion 2 - Mod of Hog - D85] (Eterna round: R96, puzzle: Exclusion 2)",312,357,,,,187
"GGAGCGAUUCUCUUAGUUAACAUGAGGAUCACCCAUGUGUACAAGCUCUUAUUUUGCUCGUCUUACCGAGAGUUGCC [Tienve] (puzzle: Sensor v3, turn-off variant 1)",,,22.6,74.3,24.7,

Sequence,apparent KD of MS2 coat protein (input ligand: FMN 200 uM) [nM],apparent KD of MS2 coat protein (input ligand: none) [nM],apparent KD of MS2 coat protein [1] [nM],apparent KD of MS2 coat protein [2] [nM],apparent KD of MS2 coat protein [3] [nM],apparent KD of MS2 coat protein [4] [nM]
"AAGAUGCGGAUAGGAUAUGGAAAUUAAUAAAGACCAGAAGGAUUGGUCACACAACAUGAGGAUCACCCAUGUGUGUGUUGUGAA [AK ExNG1-5] (Eterna round: R96, puzzle: Exclusion NG 1)",,,,,,10.6
"UAAUGUAUAUAGGAUAUCUAGCUGGAUACAGCUAGAGAAGGAUGUACAUGAGGAUCACCCAUGUAAAUCAGUGA [Ex6/14-B3] (Eterna round: R97, puzzle: Exclusion 6)",206,39.3,,,,
AGUGGGCUAGGAUAUCGAUGAACUCACAUGAGGAUCACCCAUGUGUCUUUGGUGGGCGCACGAGAAGGAGUAAGAU [Tiorat] (puzzle: Exclusion 5),,,,36.5,,
CUUUUGUGAGGAUAUCAGUAGUAAAUAAAUAAAAUUAUUACUGAGAAGGCACAUGAGGAUCACCCAUGUUCCUC [salish99_ex3_r3_086] (puzzle: Exclusion 4),,,,36.9,,
CUCUUGUUAGGAUAUCAAACUGGCAGCGGAGCUGGCAGAAGUGAGAAGGGACAUGAGGAUCACCCAUGUAAGAA [Aristeza] (puzzle: Exclusion 4),,,,70.2,,
"AACGUGUAAGGAUAUGCUGCUCGUCACGAAAGUGAUGAGUAGCAGAAGGUACAUGAGGAUCACCCAUGUAAAGA [Exclusion 4.1f (Exclusion4-cac2 - changed GC at 6/50 to AU )] (Eterna round: R96, puzzle: Exclusion 4)",91.6,22.2,,,,19
"GGCGCCUGAGGAUAUCAGUCUGGAUCAGAAAAGAUCCUGACUGAGAAGGCACAUGAGGAUCACCCAUGUUCGCC [Mat - Exclusion 4 - Eli Mod - D51] (Eterna round: R97, puzzle: Exclusion 4)",14.5,14.7,,,,
"UUAAUACAUGAGGAUCACCCAUGUCAGGAUAUUACGAUUACUCCGUGCCCAUUGAGAGUGAGAAGGGAUAUGGA [Eternabot (L2) Solution 58] (Eterna round: R97, puzzle: Exclusion 1)",19.7,18.1,,,,
"AAGAUGUGAGGAUAUGUAUCGCAUAUAGAGCGAACACUAGGAUAGAAGGCACAUGAGGAUCACCCAUGUGAUCG [Eternabot (L2) Solution 73] (Eterna round: R97, puzzle: Exclusion 4)",39.9,45.3,,,,
CCAUGUUAGCAGGAUAUGCAAUUAUUCUUUUACGCAGAAGGGCUUACAUGAGGAUCACCCAUGUAACAUUUCAU [JR_E6_Sub082] (puzzle: Exclusion 6),,,,17.2,,
"ACUGGUCGAGGAUAUACAUGAGGAUCACCCAUGUGGUCACGUGACGAUAGUCACGAAUGUAGAAGGCGACCAGU [E3/3-A2] (Eterna round: R97, puzzle: Exclusion 3)",15.7,123,,,,
"GUAGAGUCAGGAUAUACGCGAUCGAAAGAUCGGUGGUCCUUACAUGAGGAUCACCCAUGUAGAAGGGACUCUAC [Omei mod 13 to Eli's favorate candidate (ch.parushev)] (Eterna round: R97, puzzle: Exclusion 2)",65.9,580,,,,
"ACAUUACAUGAGGAUCACCCAUGUGAGGAUAUGGAGCGAUAGUGUCCUGUCGCGUACACCAGAAGGCGCGGGUG [1st #49] (Eterna round: R97, puzzle: Exclusion 1)",242,271,,,,
"AGUAGUUGUUUCCGUUCUUACAUGAGGAUCACCCAUGUUUCUUGUCGUGCUCGCGAUGCUCGUCAGACUACCAGAUG [salish99_TOv1_r3_059] (puzzle: Sensor v3, turn-off variant 1)",,,53.4,65.7,72.8,
"GAUUACUGCAAGCUUAGGGACAUGAGGAUCACCCAUGUUCGUCUUAUUGAUCUAGGUACGCUGACGUACCUAGAUCU [JL-sv1-2.29 Brourd mod] (puzzle: Sensor v3, turn-off variant 1)",,,14.7,19.4,13.8,
"AGCCCUGCAGGAUAUGCCCGGGAUAACAUGAGGAUCACCCAUGUGACCGAUUGUUAUUCUGCAGAAGGGCAUGGGA [JL-EX5-4.17 ViennaUCT mod] (Eterna round: R97, puzzle: Exclusion 5)",228,235,,,,
CCGGAUAUGCAGGAUAUCGUAUCGGAGACGAUACGAGAAGGGUAUACAUGAGGAUCACCCAUGUGCCUUACCGG [Mat - Exclusion 6 - Eli Mod - D82] (puzzle: Exclusion 6),,,23.3,19,20.7,

# From the supplement of paper PMC9170038
